Results as given in patent publication US20230406935A1 (F STAR THERAPEUTICS, published 2023).
Like-named read-outs stand apart in the source and are kept apart here.

Assays:
[1] = biological target: T1, Monomeric His-tagged human PD-L1 (Acro biosystems PD1-H5229) (human, UniProt Q9NZQ7 19-238); test: SPR Biacore, captured on protein A, monomeric PD-L1-his in flow, 1:1 fit
T1 construct: also called hPD-L1-his; PD-L1-his
Procedure: The monomeric PD-L1-his human antigen was flowed over the chip in titrating concentrations at a high flow rate to minimise mass transport limitations. The KDS were measured using a 1:1 fitting analysis with no refractive index correction and Rₘₐₓ set to local.

[2] = biological target: T2, Human PD-L1 expressed on cells (human, UniProt Q9NZQ7 19-290); test: cell-based blocking of biotinylated PD-1 Fc binding to HEK 293 hPD-L1 cells, flow cytometry
T2 construct: also called cell-surface human PD-L1; hPD-L1
T2 sequence (Q9NZQ7 19-290 limits assumed): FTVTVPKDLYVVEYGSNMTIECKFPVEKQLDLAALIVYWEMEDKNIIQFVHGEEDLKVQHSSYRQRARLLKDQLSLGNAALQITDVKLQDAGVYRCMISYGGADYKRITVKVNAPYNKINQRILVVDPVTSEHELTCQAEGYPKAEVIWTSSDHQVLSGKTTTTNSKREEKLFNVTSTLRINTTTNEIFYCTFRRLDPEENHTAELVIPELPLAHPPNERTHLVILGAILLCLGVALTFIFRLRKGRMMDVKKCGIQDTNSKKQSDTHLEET
Procedure: The blocking activity of the clones produced in Example 2.2.1 was analysed in a cell-based assay using HEK 293 cells overexpressing human PD-L1 (see 1.5 for development of the cell line). Briefly, HEK 293 cells expressing human PD-L1 were seeded at 1×10⁵ cells per well in a V-bottom 96-well plate in PBS. […] The plates were centrifuged at 1500 rpm for 3 minutes at 4° C. to pellet the cells. […] The plates were centrifuged at 1500 rpm for 3 minutes at 4° C. to pellet the cells, supernatant was discarded and the cells were resuspended in PBS. Streptavidin conjugated to Alexa 488 was diluted 1:1000 in PBS and 100 μl was added to the wells for 30 minutes at 4° C. The plates were centrifuged at 1500 rpm for 3 minutes at 4° C. to pellet the cells, supernatant discarded and the cells were resuspended in PBS with DAPI. The plate was read on FACS Canto (BD Bioscience) and the data analysed using FlowJoX.

[3] = biological target: T3, Biotinylated hPD-L1-Fc-Avi (human, UniProt Q9NZQ7 19-238); test: cell-based RBA, blocking of hPD-L1-Fc-Avi binding to HEK293 hPD-1 cells
T3 sequence (Q9NZQ7 19-238 limits assumed): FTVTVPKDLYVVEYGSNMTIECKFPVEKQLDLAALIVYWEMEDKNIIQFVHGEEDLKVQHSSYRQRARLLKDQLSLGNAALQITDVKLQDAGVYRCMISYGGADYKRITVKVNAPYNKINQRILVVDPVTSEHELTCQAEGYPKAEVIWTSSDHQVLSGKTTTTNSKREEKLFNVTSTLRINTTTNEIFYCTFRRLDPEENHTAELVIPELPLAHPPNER
Procedure: The ability of the Fcabs and mock mAb² to block hPD-1/hPD-L1 and hPD-L1/hCD80 interactions was tested in cell-based Receptor Binding Assays (RBA). […] The mix was incubated for another hour with HEK293 cells overexpressing either hPD-1 or hCD80.

[4] = biological target: T2, Human PD-L1 expressed on cells; test: flow cytometry, HEK293 cells overexpressing the target, anti-human Fc 488
Procedure: (§1) Cell binding assays were performed by incubating Fcabs or mAb² proteins with either control HEK293 cells or HEK293 cells overexpressing hPD-L1 or cynomolgus PD-L1 cells for 1 hour at 4° C. Fcab/mAb binding was subsequently detected using an anti-human Fc 488 detection antibody. Fluorescent signal intensities were measured using a FACS canto.

[5] = biological target: T4, Cynomolgus PD-L1 expressed on HEK 293 cells (cynomolgus, UniProt Q9NZQ7 19-290 (human entry)); test: as above
T4 construct: also called cell-expressed cynomolgus PD-L1
T4 sequence (Q9NZQ7 other isoform, or with tags, fused parts or gaps limits assumed): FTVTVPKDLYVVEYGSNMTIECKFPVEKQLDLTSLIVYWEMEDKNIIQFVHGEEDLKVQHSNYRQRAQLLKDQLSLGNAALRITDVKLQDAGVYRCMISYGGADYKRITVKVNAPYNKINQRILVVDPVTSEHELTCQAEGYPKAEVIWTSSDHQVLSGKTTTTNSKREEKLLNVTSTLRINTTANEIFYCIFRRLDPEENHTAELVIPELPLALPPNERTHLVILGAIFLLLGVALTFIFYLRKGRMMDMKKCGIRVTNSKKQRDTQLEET
Procedure: as §1

[6] = biological target: T1, Monomeric His-tagged human PD-L1 (Acro …); test: SPR Biacore T200, mAb^2 captured by anti-Fab on CM5, monomeric antigen in flow, 1:1 fit
[7] = biological target: T5, Monomeric cynomolgus PD-L1 (Acro Biosciences PD1-C52H4) (cynomolgus, UniProt Q9NZQ7 19-238 (human entry)); test: as above
T5 construct: also called cynomolgus monomeric PD-L1
T5 sequence (Q9NZQ7 other isoform, or with tags, fused parts or gaps limits assumed): as the sequence (Q9NZQ7 19-238 limits assumed) above, with A33T, A34S, S62N, R68Q, Q82R, F173L, T185A, T192I, H215L counted along it

[8] = biological target: T3, Biotinylated hPD-L1-Fc-Avi; test: cell-based RBA, blocking of hPD-L1-Fc-Avi binding to HEK293 hCD80 cells; PD-L1 at 50 µg/mL
[9] = biological target: T2, Human PD-L1 expressed on cells; test: cell-based or functional assay
[10] = biological target: T2, Human PD-L1 expressed on cells; test: cell-based or functional assay; remark: listed apart in the source
[11] = biological target: T1, Monomeric His-tagged human PD-L1 (Acro …); test: SPR Biacore T200 as Example 5.1, anti-Fab capture, monomeric hPD-L1-his
Procedure: Fcab and mAb² binding to human PD-L1 was assessed by both BIAcore and in a cell binding assay. To measure the affinity of the clones to monomeric hPD-L1-his, the mAb² were captured using an anti-Fab antibody coated on a CM5 chip (GE 28-9582-20 AC) and Fcabs were captured using a Protein A chip (GE 29127556) using a Biacore T200 (GE). To minimize mass transport effects, the capture level was minimized to 200RU and a fast flow rate of 75 μl/min was used. […] The analysis of the data was done using the Biacore T200 evaluation software. Curves subtracted against a blank flow cell and a run with no antigen were analysed using a 1:1 fitting model with no bulk analysis and Rmax analysed locally.
The selected CH3 domain sequences were subcloned and expressed in “mock” (MSL109) mAb² format with the LALA mutation in the CH2 domain, as described in Example 4.2.1, for further screening.

[12] = biological target: T2, Human PD-L1 expressed on cells; test: flow cytometry, HEK293 cells overexpressing the target, anti-human Fc 488; remark: listed apart in the source
Procedure: as §1, with “the mock” for “Fcabs or”, “mAb²” for “mAb² proteins”, “Mock mAb²” for “Fcab/mAb”, “Canto flow cytometer (BD Biosciences).” for “canto.”

[13] = biological target: T4, Cynomolgus PD-L1 expressed on HEK 293 …; test: as above; remark: listed apart in the source
Procedure: as §1, with “the mock” for “Fcabs or”, “mAb²” for “mAb² proteins”, “Mock mAb²” for “Fcab/mAb”, “Canto flow cytometer (BD Biosciences).” for “canto.”

[14] = biological target: T3, Biotinylated hPD-L1-Fc-Avi; test: cell-based RBA (Example 8.3), blocking of hPD-L1-Fc-Avi binding to HEK293 hCD80 cells
Procedure: (§2) The ability of the mock mAb² to block hPD-1/hPD-L1 and hPD-L1/hCD80 interactions was tested in cell-based Receptor Blocking Assays (RBA). […] The mix was incubated for another hour with HEK293 cells overexpressing either hPD-1 or hCD80.

[15] = biological target: T3, Biotinylated hPD-L1-Fc-Avi; test: cell-based RBA (Example 8.3), blocking of hPD-L1-Fc-Avi binding to HEK293 hPD-1 cells
Procedure: as §2

[16] = biological target: T1, Monomeric His-tagged human PD-L1 (Acro …); test: SPR Biacore T200, mock mAb^2 captured by anti-Fab on CM5, monomeric antigen in flow, 1:1 fit
[17] = biological target: T5, Monomeric cynomolgus PD-L1 (Acro …); test: as above

T1 sequence (Q9NZQ7 19-238 limits assumed): as the sequence (Q9NZQ7 19-238 limits assumed) above

B1: Fcab FS17-33-37 with LALA mutation (designed binder)
chain: TCPPCPAPEAAGGPSVFLFPPKPKDTLMISRTPEVTCVVVDVSHEDPEVKFNWYVDGVEVHNAKTKPREEQYNSTYRVVSVLTVLHQDWLNGKEYKCKVSNKALPAPIEKTISKAKGQPREPQVYTLPPSRDEQVGYWVSLTCLVKGFYPSDIAVEWESNGQPENNYKTTPPVLDSDGSFFLYSKLTVSNWRWQMDDFSCSVMHEALHNHYTQKSLSLSPGK
notes: also called FS17-33-37AA
In the case of B1, the Kd [1] is reported as 270 nM, the koff [1] is reported as 0.02 s⁻¹ and the kon [1] is reported as 76000 M⁻¹ s⁻¹. It also gave an IC50 [2] of 8.1 nM.

B2: FS17-33-449AA/MSL109 mock mAb^2 (bispecific antibody, human IgG1, kappa, L234A L235A)
heavy: EEQVLESGGGLVKPGGSLRLSCAASGFTFSPYSVFWVRQAPGKGLEWVSSINSDSTYKYYADSVKGRFTISRDNAENSIFLQMNSLRAEDTAVYYCARDRSYYAFSSGSLSDYYYGLDVWGQGTTVIVSSASTKGPSVFPLAPSSKSTSGGTAALGCLVKDYFPEPVTVSWNSGALTSGVHTFPAVLQSSGLYSLSSVVTVPSSSLGTQTYICNVNHKPSNTKVDKKVEPKSCDKTHTCPPCPAPEAAGGPSVFLFPPKPKDTLMISRTPEVTCVVVDVSHEDPEVKFNWYVDGVEVHNAKTKPREEQYNSTYRVVSVLTVLHQDWLNGKEYKCKVSNKALPAPIEKTISKAKGQPREPQVYTLPPSRDETGYWVSLTCLVKGFYPSDIAVEWESNGEPQYWAKTTPPVLDSDGSFFLYSKLTVSNWRWQLDDVFSCSVMHEALHNHYTQKSLSLSPGK
light: DIVMTQSPLSLSVTPGEPASISCRSSQSLLHTNGYNYLDWYVQKPGQSPQLLIYLASNRASGVPDRFSGSGSGTDFTLKISRVETEDVGVYYCMQALQIPRTFGQGTKVEIKRTVAAPSVFIFPPSDEQLKSGTASVVCLLNNFYPREAKVQWKVDNALQSGNSQESVTEQDSKDSTYSLSSTLTLSKADYEKHKVYACEVTHQGLSSPVTKSFNRGEC
In the case of B2, the EC50 [3] is reported as 1.96 nM, the Kd [4] is reported as 7.88 nM and the Kd [5] is reported as 3.6 nM. It also gave a Kd [6] of 0.38 nM, a Kd [7] of 0.6 nM and an EC50 [8] of 194 nM.

B3: FS17-33-539AA/MSL109 (bispecific antibody, human IgG1, kappa, L234A L235A)
heavy: EEQVLESGGGLVKPGGSLRLSCAASGFTFSPYSVFWVRQAPGKGLEWVSSINSDSTYKYYADSVKGRFTISRDNAENSIFLQMNSLRAEDTAVYYCARDRSYYAFSSGSLSDYYYGLDVWGQGTTVIVSSASTKGPSVFPLAPSSKSTSGGTAALGCLVKDYFPEPVTVSWNSGALTSGVHTFPAVLQSSGLYSLSSVVTVPSSSLGTQTYICNVNHKPSNTKVDKKVEPKSCDKTHTCPPCPAPEAAGGPSVFLFPPKPKDTLMISRTPEVTCVVVDVSHEDPEVKFNWYVDGVEVHNAKTKPREEQYNSTYRVVSVLTVLHQDWLNGKEYKCKVSNKALPAPIEKTISKAKGQPREPQVYTLPPSRDETGYWVSLTCLVKGFYPSDIAVEWESNGEPQYWAKTTPPVLDSDGSFFLYSKLTVSNWRWQLGDVFSCSVMHEALRNHYTQKSLSLSPGK
light: DIVMTQSPLSLSVTPGEPASISCRSSQSLLHTNGYNYLDWYVQKPGQSPQLLIYLASNRASGVPDRFSGSGSGTDFTLKISRVETEDVGVYYCMQALQIPRTFGQGTKVEIKRTVAAPSVFIFPPSDEQLKSGTASVVCLLNNFYPREAKVQWKVDNALQSGNSQESVTEQDSKDSTYSLSSTLTLSKADYEKHKVYACEVTHQGLSSPVTKSFNRGEC
B3 was tested, and the “DO11.10 EC50” value [9] was 3.14 nM, the “DO11.10 EC50” value [10] was 2.91 nM and the Kd [11] was 0.39 nM. For the same binder, the koff [11] was 0.000427 s⁻¹, the EC50 [12] was 4.8 nM and the EC50 [13] was 10 nM. It also gave an EC50 [14] of 119 nM, an EC50 [15] of 49.7 nM and a Kd [16] of 0.9 nM. It also gave a Kd [17] of 0.95 nM.

B4: FS17-33-451AA/MSL109 mock mAb^2 (bispecific antibody, human IgG1, kappa, L234A L235A)
heavy: EEQVLESGGGLVKPGGSLRLSCAASGFTFSPYSVFWVRQAPGKGLEWVSSINSDSTYKYYADSVKGRFTISRDNAENSIFLQMNSLRAEDTAVYYCARDRSYYAFSSGSLSDYYYGLDVWGQGTTVIVSSASTKGPSVFPLAPSSKSTSGGTAALGCLVKDYFPEPVTVSWNSGALTSGVHTFPAVLQSSGLYSLSSVVTVPSSSLGTQTYICNVNHKPSNTKVDKKVEPKSCDKTHTCPPCPAPEAAGGPSVFLFPPKPKDTLMISRTPEVTCVVVDVSHEDPEVKFNWYVDGVEVHNAKTKPREEQYNSTYRVVSVLTVLHQDWLNGKEYKCKVSNKALPAPIEKTISKAKGQPREPQVYTLPPSRDEEGYWVSLTCLVKGFYPSDIAVEWESNGEPQYWAKTTPPVLDSDGSFFLYSKLTVSNWRWQLDDVFSCSVMHEALHNHYTQKSLSLSPGK
light: DIVMTQSPLSLSVTPGEPASISCRSSQSLLHTNGYNYLDWYVQKPGQSPQLLIYLASNRASGVPDRFSGSGSGTDFTLKISRVETEDVGVYYCMQALQIPRTFGQGTKVEIKRTVAAPSVFIFPPSDEQLKSGTASVVCLLNNFYPREAKVQWKVDNALQSGNSQESVTEQDSKDSTYSLSSTLTLSKADYEKHKVYACEVTHQGLSSPVTKSFNRGEC
notes: also called FS17-33-451AA/MSL109 (parent 2)
In the case of B4, the “DO11.10 EC50” value [9] is reported as 4.83 nM, the “DO11.10 EC50” value [10] is reported as 8.28 nM and the EC50 [3] is reported as 0.92 nM. It also gave a Kd [11] of 0.3 nM, a koff [11] of 0.000329 s⁻¹ and a Kd [4] of 11.7 nM. For the same binder, the Kd [5] was 4.52 nM, the Kd [6] was 0.34 nM and the Kd [7] was 0.5 nM. For the same binder, the EC50 [8] was 190 nM.
